The source of these data is patent US20240376208A1 (AFFIMED, published 2024).

The target of test [1] is T1, biotinylated dimeric CD16A antigen (human, UniProt P08637 17-208, limits assumed, biotinylated (site not stated)).
T1 construct: Soluble antigen; also called soluble CD16A antigen
Description: ELISA, biotinylated dimeric CD16A titrated on construct captured by coated His-tagged human BCMA extracellular domain. The protocol: (§1) For the capturing approach, 96-well ELISA plates (Immuno Maxisorp, Nunc) were coated overnight at 4° C. with His-tagged human EGFR or BCMA extracellular domain at concentrations of 3.0 or 0.4 μg/mL, respectively. After blocking with 3% (w/v) skimmed milk powder dissolved in phosphate buffered saline (PBS), antigen coated plates were used for capturing of different multivalent bispecific engagers at concentrations of 3-5 μg/mL in PBS containing 0.3% (w/v) skimmed milk powder. After washing three times with 300 μL per well of PBS containing 0.1% (v/v) Tween 20, plates were incubated with serial dilutions of biotinylated dimeric or monomeric CD16A antigen in PBS containing 0.3% (w/v) skimmed milk powder for 1.5 h at room temperature. After washing, plates were incubated with the detection conjugate Streptavidin HRP, 1:10,000 diluted in PBS containing 0.3% (w/v) skimmed milk powder for 1 h followed by washing and incubation with tetramethylbenzidine substrate (Seramun) for 1-2 min. Reaction was stopped by addition of 0.5 M H₂SO₄ (100 μL/well). Absorbance was measured at 450 nm using a multiwell plate reader, plotted and EC₅₀ values were determined by fitting a nonlinear regression model to sigmoidal dose-response curves (four parameters logistic fit) using GraphPad Prism software.
(§2) Concentration dependent binding of antibody constructs to coated recombinant CD16A antigen, or of soluble monomeric or dimeric CD16 antigen variants to coated or target antigen captured antibody constructs was analyzed in ELISA. Half maximal binding concentrations (EC₅₀) were determined by fitting a nonlinear regression model to sigmoidal dose-response curves (four parameters logistic fit) using GraphPad Prism software.
On the technique in general: In an ELISA, binding on a coated surface is turned into a signal by an enzyme label.

Test [2] concerns the target T2, His-tagged human BCMA extracellular domain (human, UniProt Q02223 1-54).
T2 construct: extracellular domain; Coated at 0.4 ug/mL to capture the BCMA-targeting constructs; not shown: His tag
T2 sequence (looked up): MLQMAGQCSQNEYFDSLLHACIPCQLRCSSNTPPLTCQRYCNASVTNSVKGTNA
Nature of the test: ELISA, construct captured on coated His-tagged human BCMA extracellular domain.

Test [3] deals with T3, biotinylated monomeric CD16A antigen (human, UniProt P08637 17-208, limits assumed, biotinylated (site not stated)).
T3 construct: Soluble antigen; also called soluble CD16A antigen
Description: ELISA, biotinylated monomeric CD16A titrated on coated construct.

Test [4] concerns the target T3, biotinylated monomeric CD16A antigen. Description: ELISA, biotinylated monomeric CD16A titrated on construct captured by coated His-tagged human BCMA extracellular domain. The protocol: as §1, §2
For test [5], the target named is T1, biotinylated dimeric CD16A antigen. Description: ELISA, biotinylated dimeric CD16A titrated on coated construct.
For test [6], the target named is T4, recombinant CD16A 158F fused to monomeric human Fc (human, UniProt P08637 17-208).
T4 construct: also called recombinant CD16 antigen variant; not shown: monomeric human Fc
Description: ELISA, construct titrated on coated CD16A 158F fused to monomeric human Fc.

The target in test [7] is recombinant CD16A 158V fused to monomeric human Fc (human, UniProt P08637 17-208). Nature of the test: ELISA, construct titrated on coated CD16A 158V fused to monomeric human Fc.

By EC50 is commonly meant the concentration needed to bring the measured effect to its halfway point.

T3 sequence (P08637 17-208 limits assumed): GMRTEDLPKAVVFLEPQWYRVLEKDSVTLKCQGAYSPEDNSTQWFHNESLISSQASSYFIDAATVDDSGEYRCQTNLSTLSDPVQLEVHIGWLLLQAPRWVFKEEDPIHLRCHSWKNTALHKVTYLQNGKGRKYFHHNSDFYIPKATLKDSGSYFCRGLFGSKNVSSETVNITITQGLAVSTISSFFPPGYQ
T1 sequence (P08637 17-208 limits assumed): as above
T4 sequence (P08637 17-208): as the sequence (P08637 17-208 limits assumed) above
Sequence of recombinant CD16A 158V fused to monomeric human Fc (P08637 17-208 F176V): as the sequence (P08637 17-208 limits assumed) above, with F160V counted along it

B1: scFv-IgAb_18 (bispecific antibody)
heavy: EVQLLESGGGLVQPGGSLRLSCAASGFTFSNYDMAWVRQAPGKGLEWVSSISTRGDITSYRDSVKGRFTISRDNSKNTLYLQMNSLRAEDTAVYYCARQDYYTDYMGFAYWGQGTLVTVSSASTKGPSVFPLAPSSKSTSGGTAALGCLVKDYFPEPVTVSWNSGALTSGVHTFPAVLQSSGLYSLSSVVTVPSSSLGTQTYICNVNHKPSNTKVDKKVEPKSCDKTHTCPPCPAPEFEGGPSVFLFPPKPKDTLMISRTPEVTCVVVAVSHEDPEVKFNWYVDGVEVHNAKTKPREEQYNSTYRVVSVLTVLHQDWLNGKEYKCKVSNKALPAPIEKTISKAKGQPREPQVYTLPPSREEMTKNQVSLTCLVKGFYPSDIAVEWESNGQPENNYKTTPPVLDSDGSFFLYSKLTVDKSRWQQGNVFSCSVMHEALHNHYTQKSLSLSPGGGGGSGGGGSGGGGSGGGGSGGGGSGGGGSSYVLTQPSSVSVAPGQTATISCGGHNIGSKNVHWYQQRPGQSPVLVIYQDNKRPSGIPERFSGSNSGNTATLTISGTQAMDEADYYCQVWDNYSVLFGGGTKLTVLGGSGGSGGSGGSGGSGGSGGSQVQLVQSGAEVKKPGESLKVSCKASGYTFTSYYMHWVRQAPGQGLEWMGAIEPMYGSTSYAQKFQGRVTMTRDTSTSTVYMELSSLRSEDTAVYYCARGSAYYYDFADYWGQGTLVTVSS
light: AIQMTQSPSSLSASVGDRVTITCRASEDIYNGLAWYQQKPGKAPKLLIYGASSLQDGVPSRFSGSGSGTEFTLTISSLQPEDEATYYCAGPHKYPLTFGGGTKVEIKRTVAAPSVFIFPPSDEQLKSGTASVVCLLNNFYPREAKVQWKVDNALQSGNSQESVTEQDSKDSTYSLSSTLTLSKADYEKHKVYACEVTHQGLSSPVTKSFNRGEC
In the case of B1, the half-maximal effective concentration (EC50) is 0.74 nM in test [1]; 13.1 nM in test [3]; 1.98 nM in test [4]; 2.31 nM in test [5]; 0.54 nM in test [6]; 0.31 nM in test [7]. For the same molecule, the binding result in test [2] is recorded as “binds”.
